Bridge positions count the residues as written; N and C are the ends. Square brackets hold non-standard residues; d marks the D form. Primed or numbered codes have the meaning given here. Ends that are not written are not given here. * marks the point of attachment. DOTA = O=C(O)CN1CCN(CC(=O)O)CCN(CC(=O)*)CCN(CC(=O)O)CC1; Biotin = O=C1N[C@H]2[C@H](CS[C@H]2CCCCC(=O)*)N1; PEG4′ = polyethylene glycol (PEG4) linker; Lys(Me3) = C[N+](C)(C)CCCC[C@H](N)C(=O)O; PEG4 = NCCOCCOCCOCCOCCC(=O)O
Experiments:
mouse Nectin-4 = target: T1, mouse Nectin-4 (Mus musculus, UniProt Q8R007); assay: Surface plasmon resonance (Biacore T200) binding to mouse Nectin-4; details: 1:1 binding model, twenty-five degrees Celsius
T1 sequence (Q8R007 31-508): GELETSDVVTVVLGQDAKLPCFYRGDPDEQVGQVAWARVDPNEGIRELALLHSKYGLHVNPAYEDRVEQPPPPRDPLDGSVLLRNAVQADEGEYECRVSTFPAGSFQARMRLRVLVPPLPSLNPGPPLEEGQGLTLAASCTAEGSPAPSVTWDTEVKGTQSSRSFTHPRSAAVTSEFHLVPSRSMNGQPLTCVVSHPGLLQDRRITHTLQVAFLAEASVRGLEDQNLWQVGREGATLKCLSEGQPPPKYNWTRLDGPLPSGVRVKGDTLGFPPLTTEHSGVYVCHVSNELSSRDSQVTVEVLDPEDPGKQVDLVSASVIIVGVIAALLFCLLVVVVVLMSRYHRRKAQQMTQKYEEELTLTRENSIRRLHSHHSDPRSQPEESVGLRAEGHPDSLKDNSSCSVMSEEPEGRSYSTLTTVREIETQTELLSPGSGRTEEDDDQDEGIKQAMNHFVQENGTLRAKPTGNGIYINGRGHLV
Procedure: (§1) Peptide binding affinity to the target protein was measured by SPR using a Biacore T200 instrument. The target protein was covalently coupled to a Biacore chip surface using free amine-coupling chemistry (NHS/EDC) and all uncoupled sites were blocked with ethanolamine. Free peptides were flowed over the target protein surface in increasing concentrations to measure association (KA) and dissociation ([…]) to calculate the equilibrium dissociation constant (KD) using an appropriate binding model (see, e.g., Nikolas Stroth, J Biol Methods. 2016; 3 (1)).
(§2) In all figures (FIGS. 1A, 1B, 2A, and 2B), lines on graphs are labeled from top to bottom, beginning with letter “a,” and the corresponding concentration is noted to the right of the figure, next to the letter designating each line.
Surface plasmon resonance (SPR) analyses were performed using Biacore T200 (GE Healthcare). Target protein (“ligand”) was immobilized to a CM5 Series S sensor chip (Cytiva) using amine-coupling chemistry. Running buffer was 0.05% Surfactant P20 in HEPES buffered saline (HBS-P), pH 7.4 (Cytiva). Immobilization was performed at 25° C. Carboxyl groups in each flow cell were activated using a 1:1 mixture of 0.4 M 1-ethyl-3-(3-dimethylaminopropyl)-carbodiimide in water (EDC) and 0.1 M N-hydroxysuccinimide in water (NHS) for 7 minutes. The ligand was prepared in 10 mM Sodium acetate pH 5 (Cytiva). Pulsatile injections were made to target a specific immobilization level. Any remaining amine-reactive esters on the chip surface were blocked with a 7-minute injection of 1 M ethanolamine, pH 8.5. […]
Increase in signal (RU) is proportional to an increase in binding events between the analyte and ligand surface. The injection was then stopped, and dissociation was measured. […] Measured association (ka, 1/M^s−1) and dissociation (kd, s^−1) were fit to a 1:1 binding model to calculate an equilibrium dissociation constant, KD(M) for each analyte. […]
In this example, affinity for mouse Nectin-4 (FIG. 3A) and human Nectin-4 (FIG. 3B) were measured using a 1:1 binding model at twenty-five degrees Celsius. […]

human Nectin-4 [1] = target: T2, human Nectin-4 (Homo sapiens, UniProt Q96NY8); assay: Surface plasmon resonance (Biacore T200) binding to human Nectin-4; details: human Nectin-4, 1:1 binding model, twenty-five degrees Celsius
T2 sequence (Q96NY8 32-510): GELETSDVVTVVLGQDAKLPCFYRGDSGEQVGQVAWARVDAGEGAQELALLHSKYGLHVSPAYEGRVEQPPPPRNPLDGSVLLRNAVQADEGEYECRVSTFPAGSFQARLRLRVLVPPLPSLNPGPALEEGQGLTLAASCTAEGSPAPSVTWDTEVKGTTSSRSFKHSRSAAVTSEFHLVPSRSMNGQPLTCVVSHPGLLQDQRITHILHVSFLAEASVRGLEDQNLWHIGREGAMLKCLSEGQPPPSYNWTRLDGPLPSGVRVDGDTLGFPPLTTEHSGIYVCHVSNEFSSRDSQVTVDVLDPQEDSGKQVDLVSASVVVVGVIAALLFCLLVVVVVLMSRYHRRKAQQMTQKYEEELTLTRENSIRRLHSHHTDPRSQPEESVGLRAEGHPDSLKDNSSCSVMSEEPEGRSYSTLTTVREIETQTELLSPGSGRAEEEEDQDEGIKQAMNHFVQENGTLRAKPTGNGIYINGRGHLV
Procedure: as §1, §2
Surface plasmon resonance (SPR) analyses were performed using Biacore T200 (GE Healthcare). Target protein (“ligand”) was immobilized to a CM5 Series S sensor chip (Cytiva) using amine-coupling chemistry. Running buffer was 0.05% Surfactant P20 in HEPES buffered saline (HBS-P), pH 7.4 (Cytiva). Immobilization was performed at 25° C. Carboxyl groups in each flow cell were activated using a 1:1 mixture of 0.4 M 1-ethyl-3-(3-dimethylaminopropyl)-carbodiimide in water (EDC) and 0.1 M N-hydroxysuccinimide in water (NHS) for 7 minutes. The ligand was prepared in 10 mM Sodium acetate pH 5 (Cytiva). Pulsatile injections were made to target a specific immobilization level. Any remaining amine-reactive esters on the chip surface were blocked with a 7-minute injection of 1 M ethanolamine, pH 8.5. Three 10-second pulses of 50 mM Sodium hydroxide were then made to remove any unbound ligand. Reference cells were modified using amine coupling chemistry, omitting ligand injection.
Increase in signal (RU) is proportional to an increase in binding events between the analyte and ligand surface. The injection was then stopped, and dissociation was measured. The resulting sensorgram has reference surface and blank injection subtracted prior to curve fitting. Measured association (ka, 1/M^s−1) and dissociation (kd, s^−1) were fit to a 1:1 binding model to calculate an equilibrium dissociation constant, KD(M) for each analyte. Equilibrium binding constants (KD) and binding inhibition constants (Ki) estimated from surface plasmon resonance (SPR) or DELFIA® binding assays for exemplary compounds as set forth in Table 2A.
In this example, affinity for mouse Nectin-4 (FIG. 3A) and human Nectin-4 (FIG. 3B) were measured using a 1:1 binding model at twenty-five degrees Celsius. In both of FIGS. 3A and 3B, lines on graphs were labeled from top to bottom, beginning with letter a, and the corresponding concentration was noted to the right of the figure.

in vivo = details: female, athymic nude, mouse, tumor (HT1376 xenograft), total radioactivity
Procedure: In-111 labeling of miniproteins with MES buffer: In-111 was neutralized with 0.5 M MES buffer pH 5.5. This mixture was added to miniproteins prepared at 2 mg/mL in water with an equivalent amount of 0.5 M MES buffer pH 5.5, in a 1.5 mL Eppendorf vial and heated at 37° C. for 60 minutes. After the reaction, an HPLC sample was taken and an equivalent amount of 10 mM DTPA in 0.1 M ammonium acetate pH 5 was added and incubated for at least 15 minutes. The sample was then used for HPLC analysis.
In-111 labeling of miniproteins with Sodium Acetate buffer: In-111 was neutralized with 0.1 M sodium acetate buffer pH 5. […] After the reaction, an HPLC sample was taken and an equivalent amount of 10 mM DTPA in 0.1 M ammonium acetate pH 5 was added and incubated for at least 15 minutes. The sample was then used for HPLC analysis.
Purification of ^111In-miniproteins: Purification was done on two of the crude reaction mixtures mixed with 10 mM DTPA in 0.1 M ammonium acetate pH 5 and incubated for 15 minutes. A 3 kDa 0.5 mL Amicon filter was used for purification and the filter was spun at 15,000 RCF for 9 minutes. Saline was used as a formulation buffer.
Animals: Female athymic nude mice (6-8 weeks of age) were purchased from Charles River Laboratories and housed according to IACUC guidelines with ad libitum feeding. Biodistribution imaging experiments were performed on both null and tumor bearing athymic nude mice. Tumor xenograft models were generated by inoculating mice subcutaneously with 3×10^6 HT1376 cells, in 200 μL (50:50 PBS/Matrigel) in the right shoulder or right flank. Tumors were monitored for 14 days prior to SPECT/CT imaging dates. Mice with tumor volumes between 150 mm^3 and 250 mm^3 were selected for study inclusion and randomized to treatment arms. An excess of 60% of required imaging study mice were inoculated with tumor cells to ensure enough mice with appropriate tumor ranges were generated.
Animal grouping and Treatment: Animals were monitored for body weight bi-weekly and at the time of experimentation, grouped into groups of n=3. Animals were administered test-agents (TAs) that were prepared as described above. Animals received one of two standard injected dose activates and mass dose injections, depending at which site imaging studies were performed. • Site-1: 350 μCi of activity (^111In) at approximately […] peptide per mouse. • Site-2: 30MBq ([…]) of activity (^111In) at approximately 1 nM ([…]) of total peptide per mouse.
Animal imaging: Animals were sedated using isoflurane gas and imaged in a 3 bed hotel using a NanoScan SPECT/CT scanner. Animals were imaged at timepoints between 10 mins and 72 h post-dosing via SPECT scan, followed by CT scans. Details of the image process and analysis are described in Example 11.
Image Processing: Images were generated as SPECT/CT pair with the SPECT reported in units of activity. Namely, the values assigned to the voxels (volume elements) comprising the SPECT images were in units of μCi. SPECT images were co-registered to the CT scan for anatomical reference, resampled to 0.2 mm^3 voxels, masked to remove the CT background, and cropped to a uniform size prior to analysis.
Estimating tissue uptake: Regions of interest (ROIs) were defined using VivoQuant software. The kidneys and bladder were segmented as fixed volume phantoms and registered using the CT for anatomical reference. Two fixed volume spheres were used to create the liver ROI. Spheres were placed at appropriate anatomical locations based on CT and SPECT signal. Group and individual master spreadsheets were generated which included the volume, activity, and concentration (Activity/Volume) at each time point for each ROI generated. Additionally, plots of activity were generated using Matplotlib based python tools to highlight trends in the data.

[2] = target: T3, Nectin-4 on HT1376 urothelial cancer cells (UniProt Q96NY8 32-510); assay: saturation radioligand binding (Lu-177) on HT1376 cells, 4 C, gamma counting
T3 construct: whole, on cells; also called HT1376 cells
T3 sequence (looked up): T2 sequence (Q96NY8 32-510)
Procedure: Radioligand binding was performed in HT1376 urothelial cancer cells by method of saturation. Cells were seeded at 20,000 cells per well in 96-well format 48 hours prior to assay. Lutetium-177-labeled radioconjugates of C215 and C117 were incubated with cells at 4 deg C. for 1 h at various increasing concentrations of radioligand. At the end of incubation cells were washed three times with PBS and radioactivity was quantified by gamma counting as shown in Table 3.

Human Nectin-4 [3] = target: T4, Human Nectin-4 (human, UniProt Q96NY8 32-349, limits assumed); assay: SPR (Biacore), Nectin-4 immobilised
T4 construct: Amine-coupled to the Biacore chip; also called target protein; ligand
T4 sequence: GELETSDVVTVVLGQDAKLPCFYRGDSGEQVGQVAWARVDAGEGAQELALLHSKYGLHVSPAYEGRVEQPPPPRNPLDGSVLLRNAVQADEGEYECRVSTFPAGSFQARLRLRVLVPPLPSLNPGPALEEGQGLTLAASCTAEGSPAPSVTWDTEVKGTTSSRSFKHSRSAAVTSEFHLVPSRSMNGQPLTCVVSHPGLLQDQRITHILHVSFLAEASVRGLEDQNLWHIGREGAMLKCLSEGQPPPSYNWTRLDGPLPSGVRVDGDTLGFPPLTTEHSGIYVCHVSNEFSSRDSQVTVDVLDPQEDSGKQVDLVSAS

Molecule | tissue uptake at 4 h (in vivo) [%ID/g] | Kd (Human Nectin-4 [3]) [nM] | further results
Ac-CEYDEEFFAGLKRLRGGDICYYIKKKFDKVPDLCIEEILDKLGC-OH (disulfide 1-34, 20-44) [Compound C9] |  |  | kd (dissociation) (mouse Nectin-4): 0.02134 s⁻¹; kd (dissociation) (human Nectin-4 [1]): 0.02271 s⁻¹
{DOTA-PEG4}-CEYDEEFFAGLKRLRGGDICYYIKKKFDKVPDLCIEEILDKLGC (disulfide 1-34, 20-44) [Compound C12] |  |  | kd (dissociation) (mouse Nectin-4): 0.02625 s⁻¹; kd (dissociation) (human Nectin-4 [1]): 0.01697 s⁻¹; Kd (human Nectin-4 [1]; read-out: KD): 10.5 nM
{DOTA-PEG4}-CEYDEEFFAGLKRLRGGDICYYIKKKFDKVPDLCIEEILDKLGC-OH (disulfide 1-34, 20-44) [Compound C91] |  |  | kd (dissociation) (mouse Nectin-4): 0.02817 s⁻¹; kd (dissociation) (human Nectin-4 [1]): 0.02966 s⁻¹
{DOTA-PEG4}-CEYDEEFFTALKRLRGGDICYYIQAKFQYLPKLCIEEILDNLGCS (disulfide 1-34, 20-44) [Compound C117] | 2.29 |  | 
{DOTA-PEG4}-CEYDEEFFTALKRLRGGDICYYIQKAFQYLPGLCIEEILDNLGCS (disulfide 1-34, 20-44) [Compound C121] | 2.03 |  | 
{DOTA-PEG4}-CEYDEEFFTALSRLRGGDICYYIQQAFQYLPGLCIEEILDNLGCS (disulfide 1-34, 20-44) [Compound C133] | 1.29 |  | 
{DOTA-PEG4}-CEYDEQFFTALARLRGGDICYYIQEQFATVPGLCIEEILDQLGCS (disulfide 1-34, 20-44) [Compound C129] | 1.77 |  | 
{DOTA-PEG4}-CEYDEQFFTALKALRGGDICYYIQASFNYLPDLCIEEILDNLGCS (disulfide 1-34, 20-44) [Compound C113] | 1.65 |  | 
{DOTA-PEG4}-CEYDEQFFTALSSLRGGDICYYIQEQFANVPGICIEEILDNLGCS (disulfide 1-34, 20-44) [Compound C137] | 1.12 |  | 
{DOTA-PEG4′}-CEYDEEFFTALKRLRGGDICYYIKKKFKKVPKLCIEEILDKLGC-OH (designed binder, disulfide 1-34, 20-44; also: DOTA labeled with lutetium-177) [Lutetium-177-labeled radioconjugate of C215] |  |  | Kd [2]: 4.24 nM
{Biotin-PEG4′}-CEYDEEFFTALKRLRGGDICEYIQA[Lys(Me3)]FQYLPGLCIEEILDNLGCS-OH (designed binder, disulfide 1-34, 20-44) [C201] |  | 0.68 | 
H-CEYDEEFFAGLKRLRGGDICYYIKKKFDKVPDLCIKEILDKLGC-OH (designed binder, disulfide 1-34, 20-44) [C3] |  | 9.68 | 
H-CEDDFQFFADLKRLRGGDICYYIRLKFDKVPDLCIKEILDKLGC-OH (designed binder, disulfide 1-34, 20-44) [C4] |  | 14.4 | 
CEYDEEFFAGLKRLRGGDICYYIKKKFDKVPDLCIEEILDKLGC-OH (designed binder, disulfide 1-34, 20-44) [C7] |  | 5.5 | 
H-CEDDGEYFAGLQRLYGGDICYYIKLKFPKVPDLCIKEILDKLGC-OH (designed binder, disulfide 1-34, 20-44) [C1] |  | 184 | 

Source: US20260034253A1, “NECTIN-4 MINIPROTEIN CONJUGATES” (Aktis Oncology, Inc., priority 2022, published 2026)
